# From publication PMC6480404 (Molecular cell, 2018)
# B1: AcrIIA4 (natural protein, Listeria monocytogenes prophage, UniProt A0A247D711 1-87, looked up)
# chain: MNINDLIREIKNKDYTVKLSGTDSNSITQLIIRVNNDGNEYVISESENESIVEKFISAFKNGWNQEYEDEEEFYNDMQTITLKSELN
# Target: Streptococcus pyogenes Cas9 (Streptococcus pyogenes, UniProt Q99ZW2 1-1368)
# Assay: native gel or EMSA
binder,measurement,value
B1,Kd,78 nM
